Results taken from patent US20250242021A1 (BLUESPHERE BIO, published 2025).

Molecular target: HA-1 “H” peptide (…) presented on LCL222 cells (H/H)
Test: cell-based or functional assay

B1: anti-HA-1 “H” epitope TCR (TCR, V domains shown)
V domain 1: AQSVAQPEDQVNVAEGNPLTVKCTYSVSGNPYLFWYVQYPNRGLQFLLKYITGDNLVKGSYGFEAEFNKSQTSFHLKKPSALVSDSALYFCAVRAPTSGTYKYIFGTGTRLKVLA
V domain 2: GVSQDPRHKITKRGQNVTFRCDPISEHNRLYWYRQTLGQGPEFLTYFQNEAQLEKSRLLSDRFSAERPKGSFSTLEIQRTEQGDSAMYLCASSLVSGNEQFFGPGTRLTVLE
E:T ratio at which target cells were almost undetectable, cytotoxicity killing assay: 1.38 E:T ratio
EC50, cytotoxicity killing assay (E:T ratio): 0.49 E:T ratio
